Test results as given in patent US20220315909.

B1: Recombinant Human Matriptase/ST14 Catalytic Domain (protein)
chain: not shown
cleavage ratio (PAR) on peptide array, human MT-SP1 500 nM (SEQ ID NO 17999): showed higher cleavage ratios than the sequence shown as SEQ ID NO: 3 for both the cleavages by human uPA and human MT-SP1 | cleavage ratio (PAR) on peptide array, human MT-SP1 500 nM (SEQ ID NOs: 17202-17993): showed higher cleavage ratios than the sequence shown as SEQ ID NO: 3 for both the cleavages by human uPA and human MT-SP1 | cleavage ratio (PAR) on peptide array, human MT-SP1 500 nM (SEQ ID NO 17995): showed higher cleavage ratios than the sequence shown as SEQ ID NO: 3 for both the cleavages by human uPA and human MT-SP1 | cleavage ratio (PAR) on peptide array, human MT-SP1 500 nM (SEQ ID NOs: 5-17201): showed higher cleavage ratios than the sequence shown as SEQ ID NO: 2 for both the cleavages by human uPA and human MT-SP1 | cleavage ratio (PAR) on peptide array, human MT-SP1 500 nM (SEQ ID NO 18000): showed higher cleavage ratios than the sequence shown as SEQ ID NO: 3 for both the cleavages by human uPA and human MT-SP1 | cleavage ratio (PAR) on peptide array, human MT-SP1 500 nM (SEQ ID NO 17996): showed higher cleavage ratios than the sequence shown as SEQ ID NO: 3 for both the cleavages by human uPA and human MT-SP1 | cleavage ratio (PAR) on peptide array, human MT-SP1 500 nM (SEQ ID NO 18001): showed higher cleavage ratios than the sequence shown as SEQ ID NO: 3 for both the cleavages by human uPA and human MT-SP1 | cleavage ratio (PAR) on peptide array, human MT-SP1 500 nM (SEQ ID NO 17997): showed higher cleavage ratios than the sequence shown as SEQ ID NO: 3 for both the cleavages by human uPA and human MT-SP1 | cleavage ratio (PAR) on peptide array, human MT-SP1 500 nM (SEQ ID NO 17994): showed higher cleavage ratios than the sequence shown as SEQ ID NO: 3 for both the cleavages by human uPA and human MT-SP1 | cleavage ratio (PAR) on peptide array, human MT-SP1 500 nM (SEQ ID NO 17998): showed higher cleavage ratios than the sequence shown as SEQ ID NO: 3 for both the cleavages by human uPA and human MT-SP1 | cleavage ratio (PAR) on peptide array, human MT-SP1 500 nM (SEQ ID NO 18002): showed higher cleavage ratios than the sequence shown as SEQ ID NO: 3 for both the cleavages by human uPA and human MT-SP1 | cleavage ratio (PAR) on peptide array, human MT-SP1 500 nM (SEQ ID NO 18003): showed higher cleavage ratios than the sequence shown as SEQ ID NO: 3 for both the cleavages by human uPA and human MT-SP1
